Data on 1 substance can be found in article PMC4234410.

The target of this experiment is Gallus gallus laforin (Gallus gallus) (UniProt Q5ZL46). Briefly: SEC; first pass over a HiLoad 16/60 Superdex 200 column after IMAC and tag removal; buffer C (20 mM Tris/HCl pH 7.5, 100 mM NaCl, 2 mM DTT); multimer peak, dimer and monomer species seen. For orientation: SEC sorts molecules by how far they enter the pores of the column.

As usually defined, the stoichiometry N is a count of units in the complex or per binding partner.

Turning to “Gallus gallus laforin (from UniProt Q5ZL46 1-319) (enzyme)”, the stoichiometry N stood at 2.
